The target in one series is T1, CjaGST A1-1 (Callithrix jacchus, UniProt A0A7G0XAM3).
T1 construct: gene GSTA1; 222 amino acid residues, N-terminal hexahistidine tag
T1 sequence (A0A7G0XAM3 1-222): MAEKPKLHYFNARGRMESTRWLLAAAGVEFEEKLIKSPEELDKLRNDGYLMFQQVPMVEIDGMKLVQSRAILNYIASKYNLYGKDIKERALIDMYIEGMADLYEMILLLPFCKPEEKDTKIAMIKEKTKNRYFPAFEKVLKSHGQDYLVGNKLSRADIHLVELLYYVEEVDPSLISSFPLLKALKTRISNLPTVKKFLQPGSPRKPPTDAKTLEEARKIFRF
Nature of the series: specific activity, spectrophotometric assay. Format: biochemical.

Substrate in the series “purified protein”: [H][C@@]12CC=C3CC(=O)CC[C@]3(C)[C@@]1([H])CC[C@]1(C)C(=O)CC[C@@]21[H]
Nature of the series: purified protein. Particulars: glutathione H-site; Phe111 suggested to hinder steroid binding.

On to `S=C=NCCc1ccccc1` [PEITC, phenethyl isothiocyanate], for which, on CjaGST A1-1, the specific activity was found to be 8.80 ± 1.95 µmol/min/mg.

On to `O=[N+]([O-])c1ccc(Cl)c([N+](=O)[O-])c1` [CDNB, 1-chloro-2,4-dinitrobenzene], for which, on CjaGST A1-1, the specific activity is 26.1 ± 0.59 µmol/min/mg.

B1: CjaGST A1-1 (Callithrix jacchus) (protein)
chain: MAEKPKLHYFNARGRMESTRWLLAAAGVEFEEKLIKSPEELDKLRNDGYLMFQQVPMVEIDGMKLVQSRAILNYIASKYNLYGKDIKERALIDMYIEGMADLYEMILLLPFCKPEEKDTKIAMIKEKTKNRYFPAFEKVLKSHGQDYLVGNKLSRADIHLVELLYYVEEVDPSLISSFPLLKALKTRISNLPTVKKFLQPGSPRKPPTDAKTLEEARKIFRF
Turning to B1, in the series “purified protein”, the Km was found to be 303 ± 34 µM, the kcat is 6.89 ± 0.79 s⁻¹ and the kcat/Km was 22700 M⁻¹ s⁻¹.

For the origin of these results see PMC8280513, “Marmoset glutathione transferases with ketosteroid isomerase activity” (Biochemistry and Biophysics Reports, 2021).
